# Results taken from IntAct's records for PubMed 31515488.
# B1: Polymerase delta-interacting protein 3 (Homo sapiens), Q9BY77 (parent)
# chain: MADISLDELIRKRGAAAKGRLNARPGVGGVRSRVGIQQGLLSQSTRTATFQQRFDARQKIGLSDARLKLGVKDAREKLLQKDARFRIKGKVQDAREMLNSRKQQTTVPQKPRQVADAREKISLKRSSPAAFINPPIGTVTPALKLTKTIQVPQQKAMAPLHPHPAGMRINVVNNHQAKQNLYDLDEDDDGIASVPTKQMKFAASGGFLHHMAGLSSSKLSMSKALPLTKVVQNDAYTAPALPSSIRTKALTNMSRTLVNKEEPPKELPAAEPVLSPLEGTKMTVNNLHPRVTEEDIVELFCVCGALKRARLVHPGVAEVVFVKKDDAITAYKKYNNRCLDGQPMKCNLHMNGNVITSDQPILLRLSDSPSMKKESELPRRVNSASSSNPPAEVDPDTILKALFKSSGASVTTQPTEFKIKL
# partner: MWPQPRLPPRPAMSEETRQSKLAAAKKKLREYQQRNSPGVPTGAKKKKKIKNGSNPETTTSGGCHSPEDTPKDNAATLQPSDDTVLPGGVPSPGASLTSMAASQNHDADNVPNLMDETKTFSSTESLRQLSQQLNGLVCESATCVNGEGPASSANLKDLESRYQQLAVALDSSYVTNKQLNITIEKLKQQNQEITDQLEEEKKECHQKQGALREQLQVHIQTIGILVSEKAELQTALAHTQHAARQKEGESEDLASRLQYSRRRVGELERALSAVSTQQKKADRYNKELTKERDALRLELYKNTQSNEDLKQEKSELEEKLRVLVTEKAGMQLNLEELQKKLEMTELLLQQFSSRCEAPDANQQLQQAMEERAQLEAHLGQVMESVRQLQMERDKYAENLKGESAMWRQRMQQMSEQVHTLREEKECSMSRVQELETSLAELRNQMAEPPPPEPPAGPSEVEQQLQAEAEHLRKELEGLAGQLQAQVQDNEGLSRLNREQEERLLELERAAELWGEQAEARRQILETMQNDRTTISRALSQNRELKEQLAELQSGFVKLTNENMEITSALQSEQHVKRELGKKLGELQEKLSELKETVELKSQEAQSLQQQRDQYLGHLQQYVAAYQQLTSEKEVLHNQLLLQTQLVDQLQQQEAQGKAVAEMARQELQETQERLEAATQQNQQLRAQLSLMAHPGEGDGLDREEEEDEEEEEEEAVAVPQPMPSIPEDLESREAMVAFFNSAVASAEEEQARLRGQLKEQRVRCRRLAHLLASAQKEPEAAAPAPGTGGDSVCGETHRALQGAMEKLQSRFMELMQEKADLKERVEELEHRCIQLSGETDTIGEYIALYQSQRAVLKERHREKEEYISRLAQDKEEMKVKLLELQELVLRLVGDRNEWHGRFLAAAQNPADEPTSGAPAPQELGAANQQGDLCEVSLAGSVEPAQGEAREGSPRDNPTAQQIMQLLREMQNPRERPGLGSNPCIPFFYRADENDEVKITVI
# B2: Transcription factor 12 (Homo sapiens), Q99081 (parent)
# chain: MNPQQQRMAAIGTDKELSDLLDFSAMFSPPVNSGKTRPTTLGSSQFSGSGIDERGGTTSWGTSGQPSPSYDSSRGFTDSPHYSDHLNDSRLGAHEGLSPTPFMNSNLMGKTSERGSFSLYSRDTGLPGCQSSLLRQDLGLGSPAQLSSSGKPGTAYYSFSATSSRRRPLHDSAALDPLQAKKVRKVPPGLPSSVYAPSPNSDDFNRESPSYPSPKPPTSMFASTFFMQDGTHNSSDLWSSSNGMSQPGFGGILGTSTSHMSQSSSYGNLHSHDRLSYPPHSVSPTDINTSLPPMSSFHRGSTSSSPYVAASHTPPINGSDSILGTRGNAAGSSQTGDALGKALASIYSPDHTSSSFPSNPSTPVGSPSPLTGTSQWPRPGGQAPSSPSYENSLHSLQSRMEDRLDRLDDAIHVLRNHAVGPSTSLPAGHSDIHSLLGPSHNAPIGSLNSNYGGSSLVASSRSASMVGTHREDSVSLNGNHSVLSSTVTTSSTDLNHKTQENYRGGLQSQSGTVVTTEIKTENKEKDENLHEPPSSDDMKSDDESSQKDIKVSSRGRTSSTNEDEDLNPEQKIEREKERRMANNARERLRVRDINEAFKELGRMCQLHLKSEKPQTKLLILHQAVAVILSLEQQVRERNLNPKAACLKRREEEKVSAVSAEPPTTLPGTHPGLSETTNPMGHM
# Variants of: B1
# Settings: with goga2_human GOLGA2, Q08379
row,effect of a mutation on the interaction,Variant
1,disrupting interaction strength,R118Q
2,with no effect,A15T

# Variants of: B2
# Settings: with psa1_human PSMA1, P25786
# Sequence of psa1_human PSMA1, P25786 (P25786 whole entry): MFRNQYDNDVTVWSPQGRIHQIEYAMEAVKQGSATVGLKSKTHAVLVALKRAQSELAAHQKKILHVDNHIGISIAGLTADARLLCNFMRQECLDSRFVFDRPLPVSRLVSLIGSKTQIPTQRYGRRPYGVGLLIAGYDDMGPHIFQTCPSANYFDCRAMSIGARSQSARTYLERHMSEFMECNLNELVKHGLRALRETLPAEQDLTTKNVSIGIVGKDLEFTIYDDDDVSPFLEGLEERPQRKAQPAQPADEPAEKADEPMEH
row,effect of a mutation on the interaction,Variant
1,with no effect,A458V
2,with no effect,N479S
3,with no effect,I11M
4,with no effect,G300S
5,with no effect,L483R

# Variants of: B2
# Settings: with cdn2c_human CDKN2C
row,effect of a mutation on the interaction,Variant
1,with no effect,A458V
2,with no effect,N479S
3,with no effect,I11M
4,with no effect,G300S
5,with no effect,L483R
